pKd: −log10 of the molar value. Some results are limits rather than exact numbers.

For data set [1], the system named is DinJ R13A (Lacticaseibacillus paracasei 4366). The data set is described as follows: EMSA. The settings on record: complete loss of binding up to 1.5 uM; EMSA: 2 nM DNA, 128 ng salmon sperm DNA in 10 uL, 50 mM Tris-HCl pH 7.5, 50 mM KCl, 5% glycerol, room temperature 10 min, 6% native PAGE in TBE; RNAP ….
Data set [2] has as its system DinJ;YafQ_pa2333 (Lacticaseibacillus paracasei 4366;Lacticaseibacillus paracasei 2333). The data set is described as follows: EMSA. The settings on record: EMSA: 2 nM DNA, 128 ng salmon sperm DNA in 10 uL, 50 mM Tris-HCl pH 7.5, 50 mM KCl, 5% glycerol, room temperature 10 min, 6% native PAGE in TBE; RNAP …. A general note: In EMSA bound probe runs differently from free probe, usually more slowly.

For data set [3], the system named is DinJ;YafQ_pa4366 (Lacticaseibacillus paracasei 4366;Lacticaseibacillus paracasei 4366). The data set can be described thus: EMSA. Conditions: EMSA: 2 nM DNA, 128 ng salmon sperm DNA in 10 uL, 50 mM Tris-HCl pH 7.5, 50 mM KCl, 5% glycerol, room temperature 10 min, 6% native PAGE in TBE; RNAP ….
Data set [4] relates to T1, DinJ;YafQ_pa4366 (Lacticaseibacillus paracasei 4366;Lacticaseibacillus paracasei 4366), ORF:82b9b73a+ORF:f6e62217.
T1 sequence 1: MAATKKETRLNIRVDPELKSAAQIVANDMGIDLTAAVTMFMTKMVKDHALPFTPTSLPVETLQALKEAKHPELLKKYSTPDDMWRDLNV
T1 sequence 2: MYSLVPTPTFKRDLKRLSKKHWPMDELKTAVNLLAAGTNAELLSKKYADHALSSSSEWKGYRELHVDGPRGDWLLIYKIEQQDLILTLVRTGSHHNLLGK
The data set is described as follows: competition. The settings on record: EMSA: 2 nM DNA, 128 ng salmon sperm DNA in 10 uL, 50 mM Tris-HCl pH 7.5, 50 mM KCl, 5% glycerol, room temperature 10 min, 6% native PAGE in TBE; RNAP ….

The term pKd denotes the negative decadic logarithm of the Kd, by convention in mol/L. Low values mean a large Kd, high ones a small Kd. In the case of 194-bp dinJ-yafQ promoter fragment, the pKd was below 5.82 in data set [1], 7.10 in data set [2] and 7.36 in data set [3].

As to “CGTCCTCAAGCTGCTCTTGTGTTAATGGTTTCTTTTTTGTGCTCATACGTTAAATCTATCACCGCAAGGGATAAATATCTAACACCGTGCGTGTTGACTATTTTACCTCTGGCGGTGATAATGGTTGCATGTACTAAGGAGGTTGTATGGAACAACGCATAACCCTGAAAGATTATGCAATGCGCTTTGGGCAAAC (double strand) [196-bp lambda PR promoter fragment]”, in data set [4], the binding entry is “no binding”.

The record behind these values is article PMC9592637, “Functional characterization and transcriptional repression by Lacticaseibacillus paracasei DinJ-YafQ” (Applied Microbiology and Biotechnology, 2022).
